From the DeepSol protein solubility set come the findings set out here.

This series in a line: soluble on expression in E. coli; label from the status in PepcDB or PDB records.
In the case of “MAAESATTETVEKSGNEESTVEVKVNGEAQNPPQESAKPAESVEDDDEPAPAKKRSGGDSEEKEDEAAEDGPEDGEEKSNLDDDQNVENPAYIPKTGRFYMHDDNRRGDVNNSQVQDDDSDDRRNLKKSRADCDWKHDRFDEKFQRPKTKKQIVTKYGFDIRHKDGTPIQDGEEIDAPAPESTEEESSDARQVSRQQKDRRVSSTTRGKVGKSGTSRRPMKQREREDTVDESKGEEEEDQGVRPAQKRQVKQQEKPRKQKPAAPPSSEENEEDEDDGAIRRGQRRAVPLRRGTTSGPPSRLRGRMSHPMGPPRRSSGAPPSSASNRRPVESSSRGPPPPPSSSSRRDYSHQGDRNDDRFENHRRGVIRGASRGGGTVTRGTGGYGRTGAIRGGVRGSGAPRYGVRRTDTSEQSEGYQRGGSGTDYSSPRPNHQSDRSYQASSTNFRGGSHPHPSANVYPSSRGGYSSNNADYASRGGGGYHGPPQHHNNHHNHQQKRFVQGPPPPMVAVGVVPGNVVPPPQMTRGSTHGGNQHNGGGGGGSGGQQRIRQPTDVVYFDPQQQQGTRQLPPRSKKVIPIVDPKDHQ”, the “soluble on expression in E. coli” value is on record as “not soluble”.
“MGSDKIHHHHHHMKAAVYEGKKAIKMTELPTPKAGPNDVVIQNIYAGICGSDVAVYNHGSGTGHKIETDHEFGHEAVSKVVEVGDDVHDFKIGDRVYPYPLLARGDPSRAGSMGGFSEYILIPNAKLNRQLYLVPKEIDNHVAAMIEPFTVGTRAAKQTRPDKNDNAIVYGTGTIGMAAAVALKHLGVKQVMLVDLSDYRLNVAKELGFLTVNSSRDDVRSQAIEAFGKAEYSLHGEAPDTQIFLDAAGHNSILEDFLQFGPVGSRFVTVGVNNSKPQIDFLELIFGSKSVGGSGGYRPEDVQTVFEIMKERQSDLRKMVSQEFDWQDLEKGIQTATDTTISEKVLINYHL”: the “soluble on expression in E. coli” value was “not soluble”.
Regarding “MSDSGRADALLAQLPREGRGRLKVFLGAAPGVGKTYAMLQAAHAQLRQGVRVMAGVVETHGRAETEALLNGLPQQPLLRTEYRGMTLEEMDLDALLKAAPSLVLVDELAHTNAPGSRHTKRWQDIQELLAAGIDVYTTVNVQHLESLNDQVRGITGVQVRETLPDWVLQEAFDLVLIDLPPRELLERLRDGKVYVPEQARAAIDAFFTQTNLTALREMAMQTAAAQV”, the “soluble on expression in E. coli” value is recorded as “not soluble”.
As to “MAHHHHHHMRGVSAAEIGKFRELQNHWWNPDGPLRTLHFFNPLRVKYINDTCRNFSKRSSLLASSGITPGMRILDVGCGGGILSESLVRLGGNVLGIDMCEESIAVAQQRREQVLQDVASCTLQNGAASLEYRYASLNTIAVEEKQQFDLVVASEVIEHVDDAPRFLQDLCDATKPGGLLIISTMDKSIRAAISHIAVAEYLTALVRPGTHDWSKFVPPKDLSRCALQHQVRQVDLQYIVACPNILMSLSTRQMQLAFSLSKRFDTGHYFWSGLKVTAPA”, the “soluble on expression in E. coli” value was “not soluble”.
With “MIDTLKNIKVKDVMTKNVITAKRHEGVVEAFEKMLKYKISSLPVIDDENKVIGIVTTTDIGYNLIRDKYTLETTIGDVMTKDVITIHEDASILEAIKKMDISGKKEEIINQLPVVDKNNKLVGIISDGDIIRTISKII” the entry was “soluble”.
With “MGSDKIHHHHHHMAQNFHDNSQVSSEMSTAISRTAKPSSEFYSIFSEEEILGIICALEIRREIPLKYSYKGRGAKIWDDFYQKYIIPRWYRISNVEIELLKSNFKYFNDNIKSGEKINIVDVGAGNSYPVKDFVQRLNKLNKINKYVALDISEELLNLSKNNFKKWFPNVEFISSTIDIENNCVPKTLFQNNPDLEMDNTAKIFLHLGVTIGNHQNRDKVFKNFRESMGKNDFLVFTNEIGSNSKWDGNVRGGCKYHVEEIYGWVKNKVGIESEGCELVRKYDLKTDSIVANIRFNHDYTINFSRMGIDKKIEISEGEEITIWRHHKYEMPKLLQELERSGLQLIQYSTDKYKSHIMVICKISSN” the entry was “not soluble”; with “MSLENKFARTVLGDIPVEKLGITDCHDHFIKNGGPEVEEHIDFLMLNVDASIKEFKEFIDRGGSTIVTMDPPNVGRDVLKTLEIANAVKNLGGNVIMSTGFHKAKFYDKYSSWLAVVPTEEIVKMCVAEIEEGMDEYNYNGPVVKRSKAKAGIIKAGTGYGAIDRLELKALEVAARTSILTGCPILVHTQLGTMALEVAKHLIGFGANPDKIQISHLNKNPDKYYYEKVIKETGVTLCFDGPDRVKYYPDSLLAENIKYLVDKGLQKHITLSLDAGRILYQRNYGLTKGKQTFGLAYLFDRFLPLLKQVGVSKEAIFDILVNNPKRVLAFDEKRNFDPLKVSKEVLELKKELNLNEGHHHHHH”, “soluble”.
